Values joined by “and” are separate entries in the source; they are usually repeats but may differ in a detail not shown here. Equal entries are not always repeated.
B1: antibody 452 (antibody, V domains shown)
VH: QVQLVESGGGLVKPGGSLRLSCAASGFTFSDYYLSWIRQAPGKGLEWVSYISSSGSNIYYADSVKGRFTISRDNAKNSLYLQMNSLRADDTAVFYCARAGRYCSGGSCRVEYFQHWGQGTLVTVSS
VL: SYELTQPPSVSVSPGQTARITCSGDALPKQYAYWYQQKPGQAPVLVIYKDNERPSGIPERFSGSSSGTTATLTISGVQAEDEADYYCQSADSSGTVVFGGGTKLTVL
B2: anti-SARS-CoV-2 antibody 499 (antibody, V domains shown)
VH: EVQLVESGGGLVKPGGSLRLSCAASGFTFSSYSMNWVRQAPGKGLEWVSSISSSSSYIYYADSVKGRFTISRDNAKNSLYLQMNSLRAEDTAVYYCARAPAGIVVGPDYWGQGTLVTVSS
VL: NFMLTQPHSVSESPGKTVTISCTGSSGSIASNYVQWYQQRPGSAPTTVIFEDNQRPSGVPDRFSGSIDSSSNSASLTISGLKTEDEADYYCQSYHSSNPHVVFGGGTKLTVL
B3: anti-SARS-CoV-2 antibody 495 (antibody, V domains shown)
VH: QITLKESGPTLVKPTQTLTLTCTFSGFSLSTSGVGVGWIRQPPGKALEWLALIYWDDDKRYSPSLKSRLTITKDTSKNQVVLIMTNMDPVDTATYYCAHRDSSSWFDLDAFDIWGQGTMVIVSS
VL: QSVLTQPPSVSEAPRQRVTISCSGSSSNIGNNAVNWYQQLPGKAPKLLIYYDDLLPSGVSDRFSGSKSGTSASLAISGLQSEDEADYYCAAWDDRLNGPVFGGGTKLTVL
B4: antibody 472 (antibody, V domains shown)
VH: EVQLVESGGGLIQPGGSLRLSCAASGFTVSSNYMSWVRQAPGKGLEWVSVIYSGGTTHYADSVKGRFTISRDNSKNTLYLQMNSLRAEDTAVYYCANYGMDVWGQGTTVTVSS
VL: SYELTQPSSVSVSPGQTARITCSGDVLAKKYARWFQQKPGQAPVLVIYKDSERPSGIPERFSGSSSGTTVTLTISGAQVEDEADYYCYSAADKVFGGGTKLTVL

How the values were obtained:
Conditions in all cases: remark: other sources report otherwise
[1] = molecular target: SARS-CoV-2 full length spike protein (wild-type) (SARS-CoV-2), P0DTC2
[2] = molecular target: SARS-CoV-2 full length spike protein (wild type), expressed on the surface of transiently transfected CHO cells (SARS-CoV-2), P0DTC2
[3] = molecular target: SARS-CoV-2 spike (S) protein, full length, wild type (SARS-CoV-2), P0DTC2
[4] = molecular target: SARS-CoV-2 spike protein (SARS-CoV-2), P0DTC2

Binder	median fluorescence intensity, fold over isotype control (fold over isotype) [2]	median fluorescence fold over isotype (fold over isotype) [3]	further results
B1	26.8		Binding to Wild-Type SARS-CoV-2 (Bead Assay) [1]: 854
B2		1120 and 386 and 432	
B3		1090 and 384 and 530	
B4	0.91		Kd [4]: < 0.469 nM; koff [4]: < 1e-05 s⁻¹; kon [4]: 21300 M⁻¹ s⁻¹
